From PMC9361855 come the findings set out here.

One may read the Kd as the concentration at which binding is half-saturated. A high value points to lower affinity.

The target of the first assay is Factor I (UniProt P05156). Kind of assay: ELISA. The conditions noted are these: CipA variants coated at 5 ng/µl; FI 10 ng/µl; anti-FI antibody 1:1,000; parent: est. 2.8; read off a plot. Background: ELISA stands for enzyme-linked immunosorbent assay.
For “CipA (hexahistidine-tagged, lacking the N-terminal signal sequence, amino acid residues 19-369) P367del”, the response (Absorbance at 490 nm) is 2. Regarding “CipA (hexahistidine-tagged, lacking the N-terminal signal sequence, amino acid residues 19-369) K365A; K366A; K368A; K369A”, the response (Absorbance at 490 nm) was determined as 2.7.

Consider “CipA (hexahistidine-tagged, lacking the N-terminal signal sequence, amino acid residues 19-369) L363del; V364del”, for which the response (Absorbance at 490 nm) was 2.7.

Regarding “CipA (hexahistidine-tagged, lacking the N-terminal signal sequence, amino acid residues 19-369) P367A”, the response (Absorbance at 490 nm) worked out at 2.1. Consider “CipA (hexahistidine-tagged, lacking the N-terminal signal sequence, amino acid residues 19-369) V364del”, for which the response (Absorbance at 490 nm) was 1.9. With “CipA (hexahistidine-tagged, lacking the N-terminal signal sequence, amino acid residues 19-369) L363del”, the response (Absorbance at 490 nm) is 2.

The same assay, now with this note: CipA variants coated at 5 ng/µl; FI 10 ng/µl; anti-FI antibody 1:1,000; parent: est. 3.1; read off a plot.
On to “CipA (hexahistidine-tagged, lacking the N-terminal signal sequence, amino acid residues 19-369) E360P”, for which the response (Absorbance at 490 nm) was 0.35. “CipA (hexahistidine-tagged, lacking the N-terminal signal sequence, amino acid residues 19-369) E360A”: the response (Absorbance at 490 nm) was 2.8. Turning to “CipA (hexahistidine-tagged, lacking the N-terminal signal sequence, amino acid residues 19-369) E362A”, the response (Absorbance at 490 nm) is 2.9.

Turning to “CipA (hexahistidine-tagged, lacking the N-terminal signal sequence, amino acid residues 19-369) Q361A”, the response (Absorbance at 490 nm) is 3.1.

The next assay deals with CipA (hexahistidine-tagged, lacking the N-terminal signal sequence, amino acid residues 19-369) (Acinetobacter baumannii). The assay is described as follows: ELISA; CipA immobilised (5 µg/ml), increasing amounts of complement component (0 to 50 nM in the methods; 0 to 25 nM FI in the legend); dissociation constant approximated by non-linear regression, one-site specific binding model.
Conditions: not given
In the case of “Factor I (from UniProt P05156 19-335; P05156 340-583) (enzyme)”, the Kd worked out at 3 nM.
